From article PMC4860004 come the findings set out here.

The stoichiometry N is a count of units in the complex or per binding partner.

The target of the experiment is IRΔβ (human insulin receptor ectodomain construct, (αβ)2 homodimer) (human) (UniProt P06213). Nature of the experiment: crystal structure.

“IRΔβ (human insulin receptor ectodomain construct, (αβ)2 homodimer) (from UniProt P06213-2 28-1370)” registered a stoichiometry N of 2.
